Test results taken from patent publication US20090104207A1.

Biological target: E1s (hepatitis C virus)
Experiment: coating ELISA, E1s at 0.5 µg/ml, hybridoma supernatant

How did the O.D. (450-595 nm) turn out when 4G2 (antibody) was run?
Its O.D. (450-595 nm) is over 2 O.D.
